According to article PMC5763555:

Legend:
Experiment in all cases: EMSA
POS-1 TZF domain = POS-1 TZF domain (Caenorhabditis elegans, UniProt G5EF15 80-180)
POS-1(ZFmut) TZF domain = POS-1(ZFmut) TZF domain (Caenorhabditis elegans, UniProt G5EF15 80-180, F121N;F164N)
MEX-5 TZF domain = molecular target: T1, MEX-5 TZF domain (Caenorhabditis elegans, UniProt Q9XUB2 236-350)
T1 sequence: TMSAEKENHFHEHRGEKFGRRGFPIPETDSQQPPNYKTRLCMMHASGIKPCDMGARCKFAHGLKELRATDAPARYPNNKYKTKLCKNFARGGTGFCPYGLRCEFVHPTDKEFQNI

Chain of POS-1 TZF domain (G5EF15 80-180): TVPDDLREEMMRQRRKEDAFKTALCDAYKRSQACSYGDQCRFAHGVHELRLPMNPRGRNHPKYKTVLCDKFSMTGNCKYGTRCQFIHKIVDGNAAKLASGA
Chain of POS-1(ZFmut) TZF domain (G5EF15 80-180 F121N/F164N): as the sequence (G5EF15 80-180) above, with F42N, F85N counted along it

B1: SCR+ (glp-1 3'UTR fragment) (ssRNA)
RNA: UUUUUCUUAUUCUAGACUAAUAUUGUAAGCU
- Kd (POS-1 TZF domain): 26.9 ± 1.8 nM
- Kd (POS-1(ZFmut) TZF domain): > 300 nM

B2: TNF-ARE (ssRNA)
RNA: GUGAUUAUUUAUUAUUUAUUUAUUAUUUAUUUAUUAG
- Kd (MEX-5 TZF domain): 11 ± 2 nM
